This passage reports EC50 results from US20250018005A1.

Experiment [1] addresses gp120, a protein in the HIV envelope (HIV). Put plainly: competition ELISA, Q-GRFT binding to gp120, PBS control (no α-mannan). On the technique in general: ELISA stands for enzyme-linked immunosorbent assay.
The target is the same in experiment [2]. Description: competition ELISA, Q-GRFT binding to gp120 in the presence of α-mannan at 0.005 (printed g/mL; the legend of FIG. 3 prints µg/mL).

A word on the EC50: it is the midpoint of the concentration-response curve. On to “Q-Griffithsin (Q-GRFT), recombinant oxidation-resistant variant of griffithsin (M78Q) (from UniProt P84801 1-121)”, for which the EC50 was determined as 72.5 µg/mL in experiment [1] and 79.3 µg/mL in experiment [2].
